This experiment has as its target T1, MMP-2 (Homo sapiens, UniProt P08253).
T1 sequence (P08253 110-660): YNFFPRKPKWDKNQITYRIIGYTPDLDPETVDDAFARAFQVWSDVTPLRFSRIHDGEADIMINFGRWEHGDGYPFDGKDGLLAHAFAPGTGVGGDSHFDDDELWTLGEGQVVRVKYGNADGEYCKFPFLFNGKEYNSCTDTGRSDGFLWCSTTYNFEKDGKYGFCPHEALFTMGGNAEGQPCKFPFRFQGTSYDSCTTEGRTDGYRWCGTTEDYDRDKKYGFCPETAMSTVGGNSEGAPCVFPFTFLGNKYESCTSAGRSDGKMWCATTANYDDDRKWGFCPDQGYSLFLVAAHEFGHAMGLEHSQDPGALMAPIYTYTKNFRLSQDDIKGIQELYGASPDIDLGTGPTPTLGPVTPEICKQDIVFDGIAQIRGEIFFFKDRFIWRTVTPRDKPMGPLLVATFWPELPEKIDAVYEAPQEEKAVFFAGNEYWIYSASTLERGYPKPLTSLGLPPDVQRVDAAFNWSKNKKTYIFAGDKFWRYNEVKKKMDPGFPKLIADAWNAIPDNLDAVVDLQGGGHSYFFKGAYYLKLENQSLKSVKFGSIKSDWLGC
In words: Degradation of Fmoc-GPQGIAGWG-PEG by MMP-2 (gel filtration). Format: biochemical. As to conditions: per unit weight of MMP-2 and unit time, beginning (15 minutes), MMP-2 0.34 μg/ml, 37° C., FIG. 4. On the procedure: After mixing in 0.5 ml of sample in 0.5 ml of acetonitrile, the mixture was filtered and gel filtration was performed.
The effects on degradation by MMP-2 when PEG bonded with Fmoc-GPQGIAGWG (SEQ ID NO:21) were evaluated.
MMP-2 solution was diluted with Tris buffer. […] The final concentration of MMP-2 was 0.34 μg/ml. […] The Fmoc-GPQGIAGWG-PEG (SEQ ID NO:22) in the filtrate was separated and quantitatively determined by gel filtration.
On the technique in general: Size exclusion chromatography separates by hydrodynamic size, large species first.

The values that follow come from US7169892B2, “Lipid-peptide-polymer conjugates for long blood circulation and tumor specific drug delivery systems” (Astellas Pharma Inc., priority 2003, dated 2007).

The star is where a group is joined. amidopropyl polyoxyethylene methyl ether = C-terminal amidopropyl PEG methyl ether; Fmoc = O=C(OCC1c2ccccc2-c2ccccc21)*

In the case of “9-fluorenylmethyloxycarbonyl (Fmoc)-glycyl-prolyl-glutamyl-glycyl-isoleucyl-alanyl-glycyl -tryptophanyl-glycyl (Fmoc-Gly-Pro-Gln-Gly-Ile-Ala-Gly-Trp-Gly)-amidopropyl polyoxyethylene methyl ether (Fmoc-GPQGIAGWG-{amidopropyl polyoxyethylene methyl ether}) [Fmoc-GPQGIAGWG-PEG]”, the “degradation rate by MMP-2 compared with Fmoc-GPQGIAGWG” value is on record as “virtually the same”.
